From US20230256017A1 (published 2023)

T1: CD2 (human, UniProt P06729 25-351)
T1 construct: whole, on cells; also called T-cell surface antigen T11/Leu-5/CD2
T1 sequence (looked up): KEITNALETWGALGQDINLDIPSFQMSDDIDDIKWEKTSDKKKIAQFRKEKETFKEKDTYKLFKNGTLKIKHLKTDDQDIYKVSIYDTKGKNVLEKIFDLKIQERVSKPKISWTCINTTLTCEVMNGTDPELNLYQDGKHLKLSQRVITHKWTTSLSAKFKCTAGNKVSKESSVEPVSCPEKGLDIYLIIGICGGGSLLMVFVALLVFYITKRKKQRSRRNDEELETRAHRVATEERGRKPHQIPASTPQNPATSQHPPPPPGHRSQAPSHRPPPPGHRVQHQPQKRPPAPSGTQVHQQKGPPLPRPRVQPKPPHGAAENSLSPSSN

T2: BCMA (TNFRSF17) (human, UniProt Q02223 1-184, limits assumed)
T2 construct: Member of a commercial human plasma membrane protein array
T2 sequence (looked up): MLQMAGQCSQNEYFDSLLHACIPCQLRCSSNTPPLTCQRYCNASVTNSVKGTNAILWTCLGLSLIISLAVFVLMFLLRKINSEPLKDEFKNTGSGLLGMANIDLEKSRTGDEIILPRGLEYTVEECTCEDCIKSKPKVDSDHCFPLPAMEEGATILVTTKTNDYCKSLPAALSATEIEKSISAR


Legend:
CD2 = target: T1, CD2; assay: legend of FIG. 55 (CAR transduction of donor T cells by costimulatory molecule targeted); no direct binding assay
BCMA (TNFRSF17) = target: T2, BCMA (TNFRSF17); assay: commercial human plasma membrane protein array

| Binder | binding result (CD2) | binding result (BCMA (TNFRSF17)) |
| --- | --- | --- |
| Construct 1 (bispecific antibody, human IgG1, kappa, Anti-CD3 scFv fused to an anti-CD2 Fab, further fused to a wild type Fc; also called F1) light: DVVMTQSPPSLLVTLGQPASISCRSSQSLLHSSGNTYLNWLLQRPGQSPQPLIYLVSKLESGVPDRFSGSGSGTDFTLKISGVEAEDVGVYYCMQFTHYPYTFGQGTKLEIKRTVAAPSVFIFPPSDEQLKSGTASVVCLLNNFYPREAKVQWKVDNALQSGNSQESVTEQDSKDSTYSLSSTLTLSKADYEKHKVYACEVTHQGLSSPVTKSFNRGEC heavy: not shown | binds | – |
| Construct 12 (bispecific antibody, human IgG1, kappa, Anti-CD2 Fab-Fc paired with anti-CD3 scFv-Fc-(G4S)3-Matrilin1; also called F12) light: DVVMTQSPPSLLVTLGQPASISCRSSQSLLHSSGNTYLNWLLQRPGQSPQPLIYLVSKLESGVPDRFSGSGSGTDFTLKISGVEAEDVGVYYCMQFTHYPYTFGQGTKLEIKRTVAAPSVFIFPPSDEQLKSGTASVVCLLNNFYPREAKVQWKVDNALQSGNSQESVTEQDSKDSTYSLSSTLTLSKADYEKHKVYACEVTHQGLSSPVTKSFNRGEC heavy 1: QVQLVQSGAEVQRPGASVKVSCKASGYIFTEYYMYWVRQAPGQGLELVGRIDPEDGSIDYVEKFKKKVTLTADTSSSTAYMELSSLTSDDTAVYYCARGKFNYRFAYWGQGTLVTVSSASTKGPSVFPLAPSSKSTSGGTAALGCLVKDYFPEPVTVSWNSGALTSGVHTFPAVLQSSGLYSLSSVVTVPSSSLGTQTYICNVNHKPSNTKVDKRVEPKSCDKTHTCPPCPAPELLGGPSVFLFPPKPKDTLMISRTPEVTCVVVDVSHEDPEVKFNWYVDGVEVHNAKTKPREEQYNSTYRVVSVLTVLHQDWLNGKEYKCKVSNKALPAPIEKTISKAKGQPREPQVCTLPPSREEMTKNQVSLSCAVKGFYPSDIAVEWESNGQPENNYKTTPPVLDSDGSFFLVSKLTVDKSRWQQGNVFSCSVMHEALHNRFTQKSLSLSPGK heavy 2: not shown | binds | – |
| Construct 5 (bispecific antibody, Anti-CD2 Fab fused to an anti-CD3 scFv, further fused to an Fc; Stated ligand valency of 2; also called F5) light: DVVMTQSPPSLLVTLGQPASISCRSSQSLLHSSGNTYLNWLLQRPGQSPQPLIYLVSKLESGVPDRFSGSGSGTDFTLKISGVEAEDVGVYYCMQFTHYPYTFGQGTKLEIKRTVAAPSVFIFPPSDEQLKSGTASVVCLLNNFYPREAKVQWKVDNALQSGNSQESVTEQDSKDSTYSLSSTLTLSKADYEKHKVYACEVTHQGLSSPVTKSFNRGEC heavy: not shown | binds | – |
| Construct 3 (bispecific antibody, human IgG1, kappa, Anti-CD2 Fab fused to a wild type Fc, further fused to an anti-CD3 scFv; Stated ligand valency of 2; also called F3) light: DVVMTQSPPSLLVTLGQPASISCRSSQSLLHSSGNTYLNWLLQRPGQSPQPLIYLVSKLESGVPDRFSGSGSGTDFTLKISGVEAEDVGVYYCMQFTHYPYTFGQGTKLEIKRTVAAPSVFIFPPSDEQLKSGTASVVCLLNNFYPREAKVQWKVDNALQSGNSQESVTEQDSKDSTYSLSSTLTLSKADYEKHKVYACEVTHQGLSSPVTKSFNRGEC heavy: not shown | binds | – |
| Construct 7 (bispecific antibody, Anti-CD3 scFv fused to an Fc, further fused to an anti-CD2 Fab; Stated ligand valency of 2; also called F7) light: DVVMTQSPPSLLVTLGQPASISCRSSQSLLHSSGNTYLNWLLQRPGQSPQPLIYLVSKLESGVPDRFSGSGSGTDFTLKISGVEAEDVGVYYCMQFTHYPYTFGQGTKLEIKRTVAAPSVFIFPPSDEQLKSGTASVVCLLNNFYPREAKVQWKVDNALQSGNSQESVTEQDSKDSTYSLSSTLTLSKADYEKHKVYACEVTHQGLSSPVTKSFNRGEC heavy: not shown | binds | – |
| Construct 15 (bispecific antibody, human IgG1, kappa, Anti-CD2 Fab-Fc paired with anti-CD3 scFv-Fc-(G4S)-COMPcc; also called F15) light: DVVMTQSPPSLLVTLGQPASISCRSSQSLLHSSGNTYLNWLLQRPGQSPQPLIYLVSKLESGVPDRFSGSGSGTDFTLKISGVEAEDVGVYYCMQFTHYPYTFGQGTKLEIKRTVAAPSVFIFPPSDEQLKSGTASVVCLLNNFYPREAKVQWKVDNALQSGNSQESVTEQDSKDSTYSLSSTLTLSKADYEKHKVYACEVTHQGLSSPVTKSFNRGEC heavy 1: QVQLVQSGAEVQRPGASVKVSCKASGYIFTEYYMYWVRQAPGQGLELVGRIDPEDGSIDYVEKFKKKVTLTADTSSSTAYMELSSLTSDDTAVYYCARGKFNYRFAYWGQGTLVTVSSASTKGPSVFPLAPSSKSTSGGTAALGCLVKDYFPEPVTVSWNSGALTSGVHTFPAVLQSSGLYSLSSVVTVPSSSLGTQTYICNVNHKPSNTKVDKRVEPKSCDKTHTCPPCPAPELLGGPSVFLFPPKPKDTLMISRTPEVTCVVVDVSHEDPEVKFNWYVDGVEVHNAKTKPREEQYNSTYRVVSVLTVLHQDWLNGKEYKCKVSNKALPAPIEKTISKAKGQPREPQVCTLPPSREEMTKNQVSLSCAVKGFYPSDIAVEWESNGQPENNYKTTPPVLDSDGSFFLVSKLTVDKSRWQQGNVFSCSVMHEALHNRFTQKSLSLSPGK heavy 2: not shown | binds | – |
| anti-human BCMA single chain antibody variable fragment (scFv) (PI61) (scFv, also called PI61 scFv) scFv: QVQLQESGGGVVQPGRSLRLSCAASGFTFSSYGMHWVRQAPGKGLEWVAVISYDGSNKYYADSVKGRFTISRDNSKNTLYLQMNSLRAEDTAVYYCGGSGYALHDDYYGLDVWGQGTLVTVSSGGGGSGGGGSGGGGSQSALTQPASVSGSPGQSITISCTGTSSDVGGYNYVSWYQQHPGKAPKLMIYDVSNRPSGVSNRFSGSKSGNTASLTISGLQAEDEADYYCSSYTSSSTLYVFGSGTKVTVL | – | binds |
